Literature values as cited in patent publication US20060110594A1, “Polymer-coated substrates for binding biomolecules and methods of making and using thereof” (priority 2004, published 2006).

Details: isoelectric point, listed property

B1: Myoglobin: protein immobilized on EMA, 17.6 kDa (protein, UniProt P68082 2-154, looked up)
Myoglobin: GLSDGEWQQVLNVWGKVEADIAGHGQEVLIRLFTGHPETLEKFDKFKHLKTEAEMKASEDLKKHGTVVLTALGGILKKKGHHEAELKPLAQSHATKHKIPIKYLEFISDAIIHVLHSKHPGDFGADAQGAMTKALELFRNDIAAKYKELGFQG
modifications: immobilized on EMA
notes: protein immobilized on EMA, 17.6 kDa
- pI: 7.2
